One block for each binder: values may come before it.
How the values were obtained:
[1] = molecular target: T1, human CD79b protein on DoHH2 and WSU-DLCL2 cells (human, UniProt P40259 29-229); assay: cell-based or functional assay
T1 sequence (looked up): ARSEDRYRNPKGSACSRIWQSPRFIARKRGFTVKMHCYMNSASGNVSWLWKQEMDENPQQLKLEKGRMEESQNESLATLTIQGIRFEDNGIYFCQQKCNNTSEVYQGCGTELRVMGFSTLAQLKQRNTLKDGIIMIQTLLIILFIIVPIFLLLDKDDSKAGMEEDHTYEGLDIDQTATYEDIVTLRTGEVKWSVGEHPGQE

[2] = molecular target: T2, human CD79b protein (human, UniProt P40259 29-159, limits assumed); assay: Biacore affinity assay, 1:1 Langmuir fit; column head prints EC50 (nM)
T2 construct: Recombinant protein used in the Biacore assay
T2 sequence (looked up): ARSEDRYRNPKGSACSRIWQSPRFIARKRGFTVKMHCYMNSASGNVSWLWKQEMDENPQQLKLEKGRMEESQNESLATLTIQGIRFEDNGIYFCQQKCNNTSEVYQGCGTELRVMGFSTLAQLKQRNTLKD
Experimental: Data fitting was performed with a (1:1) Langmuir model using BIAevaluation version 4.1, GE software to obtain affinity values.

- IC50 of in vitro proliferation inhibition (MTT, 72 h), DoHH2 cells [1]: 0.0806 µg/mL
- IC50 of in vitro proliferation inhibition (MTT, 72 h), WSU-DLCL2 cells [1]: 0.117 µg/mL
B1: ADC-8 (SN8-cys-MC-PAB-MMAE, with a DAR value of about 4) (antibody, human IgG1, kappa, V domains shown)
VH: EVQLVESGGGLVQPGGSLRLSCAASGYTFSSYWIEWVRQAPGKGLEWIGEILPGGGDTNYNEIFKGRATFSADTSKNTAYLQMNSLRAEDTAVYYCTRRVPIRLDYWGQGTLVTVSS
VL: DIQLTQSPSSLSASVGDRVTITCKASQSVDYEGDSFLNWYQQKPGKAPKLLIYAASNLESGVPSRFSGSGSGTDFTLTISSLQPEDFATYYCQQSNEDPLTFGQGTKVEIKR
modifications: MC-VC-PAB-MMAE coupled to cysteines after TCEP reduction; positions not given; mean n=3.59 per antibody (CE-SDS)

- IC50 of in vitro proliferation inhibition (MTT, 72 h), DoHH2 cells [1]: 0.0033 µg/mL
- IC50 of in vitro proliferation inhibition (MTT, 72 h), WSU-DLCL2 cells [1]: 0.0542 µg/mL
B2: ADC-6 (hAb015-10-cys-D, with a DAR value of about 4) (antibody, human IgG1, kappa, V domains shown)
VH: EVQLVQSGAEVKKPGSSVKVSCKASGSSFSSYGINWVKQAPGQGLEWIGEIFPRSGNTYYNEKFEGRATLTADKSTSTAYMELRSLRSEDTAVYYCAKGDLGDFDYWGQGTTVTVSS
VL: DFVMTQTPLSLPVTPGEPASISCRSSQSIVHSDGNTYFEWYLQKPGQSPKLLIYKVSNRFSGVPDRFSGSGSGTDFTLKISRVEAEDVGVYYCFQGSHVPWTFGGGTKVEIKR
modifications: compound D (exatecan derivative linker-drug, Topo I inhibitor) coupled to cysteines after TCEP reduction; positions not given; mean n=3.46 per antibody (RP-HPLC)

- IC50 of in vitro proliferation inhibition (MTT, 72 h), DoHH2 cells [1]: 0.0033 µg/mL
- IC50 of in vitro proliferation inhibition (MTT, 72 h), WSU-DLCL2 cells [1]: 0.0059 µg/mL
B3: ADC-3 (hAb015-10-cys-MC-vc-PAB-MMAE) (antibody, human IgG1, kappa, V domains shown)
VH: B2 VH
VL: B2 VL
modifications: MC-vc-PAB-MMAE coupled to cysteines after TCEP reduction; positions not given; mean n=3.09 per antibody (CE-SDS)

- IC50 of in vitro proliferation inhibition (MTT, 72 h), DoHH2 cells [1]: 0.002 µg/mL
- IC50 of in vitro proliferation inhibition (MTT, 72 h), WSU-DLCL2 cells [1]: 0.0534 µg/mL
B4: ADC-7 (hAb015-10-cys-D, with a DAR value of about 6) (antibody, human IgG1, kappa, V domains shown)
VH: B2 VH
VL: B2 VL
modifications: compound D (exatecan derivative linker-drug, Topo I inhibitor) coupled to cysteines after TCEP reduction; positions not given; mean n=5.84 per antibody (RP-HPLC)

- IC50 of in vitro proliferation inhibition (MTT, 72 h), DoHH2 cells [1]: 0.0085 µg/mL
- IC50 of in vitro proliferation inhibition (MTT, 72 h), WSU-DLCL2 cells [1]: 0.0683 µg/mL
B5: ADC-5 (HAB015-10-cys-D, with a DAR value of about 2) (antibody, human IgG1, kappa, V domains shown)
VH: B2 VH
VL: B2 VL
modifications: compound D (exatecan derivative linker-drug, Topo I inhibitor) coupled to cysteines after TCEP reduction; positions not given; mean n=1.81 per antibody (RP-HPLC)
notes: Antibody-drug conjugate of hAb015-10 with compound D

- KD (binding affinity) [2]: 0.38 nM
B6: hAb015-10 (antibody, human IgG1, kappa, V domains shown)
VH: B2 VH
VL: B2 VL
notes: Humanized form of the mouse hybridoma antibody mAb015; also called humanized anti-CD79b antibody hAb015-10; naked antibody

From patent US20250108122A1 (SHANGHAI MABGEN BIOTECH, published 2025)
